These results are taken from patent US20020045591A1, “Methods and therapeutic compositions for treating cancer” (priority 1998, published 2002).

The target in this test is Endogenous β-catenin of SW480 human colon carcinoma cells (human) (UniProt P35222). The test is described as follows: cell-based or functional assay.
Sequence of Endogenous β-catenin of SW480 human colon carcinoma cells (human) (P35222 2-781): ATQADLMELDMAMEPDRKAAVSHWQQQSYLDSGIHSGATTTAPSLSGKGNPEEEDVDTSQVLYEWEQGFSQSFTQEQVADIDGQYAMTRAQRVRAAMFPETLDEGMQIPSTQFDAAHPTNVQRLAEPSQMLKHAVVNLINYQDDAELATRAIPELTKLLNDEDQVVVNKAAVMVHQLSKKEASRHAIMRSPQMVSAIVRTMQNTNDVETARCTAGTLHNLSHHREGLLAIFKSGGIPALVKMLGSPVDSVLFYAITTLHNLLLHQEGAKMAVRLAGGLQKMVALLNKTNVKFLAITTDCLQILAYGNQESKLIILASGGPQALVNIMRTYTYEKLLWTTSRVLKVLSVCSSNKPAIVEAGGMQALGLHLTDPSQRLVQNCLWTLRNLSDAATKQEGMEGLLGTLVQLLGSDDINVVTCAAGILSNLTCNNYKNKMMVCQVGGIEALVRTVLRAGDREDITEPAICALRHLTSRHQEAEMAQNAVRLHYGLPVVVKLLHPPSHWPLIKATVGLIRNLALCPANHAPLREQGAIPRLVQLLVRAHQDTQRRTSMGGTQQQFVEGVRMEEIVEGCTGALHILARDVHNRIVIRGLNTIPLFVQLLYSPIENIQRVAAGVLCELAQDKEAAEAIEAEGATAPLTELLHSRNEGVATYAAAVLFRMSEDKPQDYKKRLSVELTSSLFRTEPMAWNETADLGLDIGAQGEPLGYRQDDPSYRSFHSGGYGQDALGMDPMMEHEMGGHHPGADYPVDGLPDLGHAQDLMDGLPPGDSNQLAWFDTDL

“Cytoplasmic tail of N-cadherin (amino acids 752-912) fused to the C-terminus of GFP (from UniProt B2KI42 746-906)” yielded an inhibition of luciferase activity (LEF-1-driven transactivation) in SW480 cells of 80%.

Take “Cytoplasmic tail of mouse E-cadherin (amino acids 735-884) fused to the C-terminus of GFP (from UniProt P09803 720-869)”: the inhibition of luciferase activity (LEF-1-driven transactivation) in SW480 cells came to 75%.

Substance “GFP-E72 (C-terminal 72 amino acids of mouse E-cadherin, residues 813-884, fused to the C-terminus of GFP) (from UniProt P09803 798-869)” came in with an inhibition of luciferase activity (LEF-1-driven transactivation) in SW480 cells of 60%.

On to “GFP-N71 (C-terminal 71 amino acids of N-cadherin, residues 842-912, fused to the C-terminus of GFP) (from UniProt B0KW95 836-906)”, for which the inhibition of luciferase activity (LEF-1-driven transactivation) in SW480 cells is 70%.

In turn, “IL2R/N-cadherin chimera (extracellular and transmembrane domains of IL2Rα fused to the intracellular domain of N-cadherin, amino acids 752-912)” returned an inhibition of TOPFLASH-responsive transcription (luciferase) in SW480 cells of 50%.
